Measured values: patent publication US20260224723A1, “ANTI-B7H3 ANTIBODY-DRUG CONJUGATE AND USE THEREOF” (Duality Biologics (Suzhou) Co., Ltd., priority 2022, published 2026)
pEC50: −log10 of the molar value.

What was measured:
[1] = molecular target: Human full-length B7H3 on MCF-7 cells (human) (UniProt Q5ZPR3); assay: FACS on MCF-7 cells, Alexa 647 anti-human secondary
[2] = molecular target: Human full-length B7H3 on MCF-7 cells (human) (UniProt Q5ZPR3); assay: cell-based or functional assay
[3] = molecular target: Cynomolgus monkey full-length B7H3 on transfected FlpinCHO cells (cynomolgus monkey); assay: FACS on cynomolgus monkey B7H3-transfected FlpinCHO cell pool; negative control

| pEC50 [1] | Maximum MFI [1] [MFI] | Antibody internalization EC50 [2] [nM] | Antibody internalization Maximum MFI [2] [MFI] | Maximum MFI [3] [MFI] | Substance |
| --- | --- | --- | --- | --- | --- |
| 8.60 | 4640 | 1.95 | 39800 |  | Enoblituzumab (MacroGenics) (antibody) |
|  |  |  | 21 | 6.67 | hIgG1 isotype (antibody) |
